Results as given in US11045546 (CYTODYN, dated 2021).

Target: C-C chemokine receptor 5 (CCR5) (human, UniProt P51681 1-352)
Experiment: cell-based or functional assay

Chain of C-C chemokine receptor 5 (CCR5) (P51681 whole entry): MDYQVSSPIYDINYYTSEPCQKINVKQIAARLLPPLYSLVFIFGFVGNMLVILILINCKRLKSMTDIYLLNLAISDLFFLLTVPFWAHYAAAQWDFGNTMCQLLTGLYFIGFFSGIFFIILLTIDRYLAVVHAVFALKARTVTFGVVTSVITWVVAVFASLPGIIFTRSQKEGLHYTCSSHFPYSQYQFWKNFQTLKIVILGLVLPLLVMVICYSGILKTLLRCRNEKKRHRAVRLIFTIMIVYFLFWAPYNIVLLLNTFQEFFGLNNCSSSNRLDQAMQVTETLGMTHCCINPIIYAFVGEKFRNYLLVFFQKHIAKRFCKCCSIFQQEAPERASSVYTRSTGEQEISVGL

B1: Leronlimab (PRO 140) (antibody, human IgG4, kappa, V domains shown)
VH: EVQLVESGGGLVKPGGSLRLSCAASGYTFSNYWIGWVRQAPGKGLEWIGDIYPGGNYIRNNEKFKDKTTLSADTSKNTAYLQMNSLKTEDTAVYYCGSSFGSNYVFAWFTYWGQGTLVTVSS
VL: DIVMTQSPLSLPVTPGEPASISCRSSQRLLSSYGHTYLHWYLQKPGQSPQLLIYEVSNRFSGVPDRFSGSGSGTDFTLKISRVEAEDVGVYYCSQSTHVPLTFGQGTKVEIKR
inhibition of MIP-1α-induced calcium mobilization, IC50: 21.2 µg/mL
inhibition of MIP-1β-induced calcium mobilization, IC50: 39.6 µg/mL
inhibition of RANTES (CCL5)-induced calcium mobilization, IC50: 59.1 µg/mL
